Values joined by “and” are separate entries in the source; they are usually repeats but may differ in a detail not shown here. Equal values may be shown once. Read-outs that look alike come from different tables or passages of the source.
Assays:
[1] = target: human porphobilinogen synthase, wild type (WT HsPBGS) (human) (UniProt P13716)
[2] = target: human porphobilinogen synthase, wild type (WT HsPBGS) (human) (UniProt P13716); remark: listed apart in the source
[3] = target: human porphobilinogen synthase, wild type (WT HsPBGS) (human) (UniProt P13716); remark: listed apart in the source
[4] = target: Pisum sativum (green pea) porphobilinogen synthase (PsPBGS) (Pisum sativum (green pea)); assay: native gel or EMSA

Row | Substance | stoichiometry N [1] | stoichiometry N [2] | percent Phe12 (WT) chains in the hetero-octamers (Pool II) [3] | stoichiometry N [4]
1 | human porphobilinogen synthase, naturally occurring variant F12L (from UniProt P13716 1-330) (enzyme) | 6 and 8 | 6 and 8 | 70% | –
2 | Pisum sativum (green pea) porphobilinogen synthase (PsPBGS) (enzyme) | – | – | – | 8 and 6

— paper PMC3256758
